pIC50, pKd: −log10 of the molar value.
Experiments:
[1] = target: βAPP-C100 binding site on NGF-treated PC12 cells; assay: competition with 35S-βAPP-C100 for binding to NGF-treated PC12 cells
[2] = target: βAPP-C100 binding site on NGF-treated PC12 cells; assay: saturation binding of 35S-βAPP-C100 to NGF-treated PC12 cells, filtration, 4° C.
[3] = target: βAPP-C100 binding site on NGF-treated PC12 cells; assay: inhibition of 35S-βAPP-C100 binding to NGF-treated PC12 cells by unlabeled βAPP-C100

pIC50 [1] | times less potent than the native form [1] [times] | pKd [2] | pIC50 [3] | Substance
< 7.85 | > 20 | – | – | Phe687-βAPP-C100 (from UniProt P05067-4) (ligand)
– | – | 9.09 | 8.77 | flag-βAPP-C100 (from UniProt P05067-4) (ligand)

— patent US6083713
